We go through 41 sequences from the nanobody polyreactivity screen of Harvey et al. (2022).

A short description of the data set: yeast display, Sf9 membrane polyspecificity reagent, FACS + sequencing; frameworks hold sequencing errors. Summed up:
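Synthetic nanobody libraries on Saccharomyces cerevisiae BJ5465 were galactose-induced for 36–48 hours, stained 1 hour at 4 °C with 10% biotinylated, detergent-solubilized Sf9 membrane reagent and enriched on streptavidin microbeads. FACS then separated cells into low and high (top ~1%) gates by anti-HA (expression) and streptavidin (reagent binding) fluorescence. Genes were colony-PCR amplified, MiSeq 2 × 250 sequenced and CDR-length filtered. A clone's polyreactivity label is that of its gate of origin.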
As to “QVQLVESWGGLVQAGGSLRLSCAASGFIFTLYAMGWYRQATGKEREFVAAISWSDGSTTYADSVKGRFTISRDNAKTTVYLQMNSLKPEDTAVYYCAAVTSSYIRGLVYHFYYWGQGTQVTVSS”, the “polyreactivity (PSR sort gate)” value is on record as “low polyreactivity”.
With “QVQLVESWGGLVQAGGSLRLSCAASGFIFYRYAMGWYRQAPGKERELVAVISVSGGSTYADSVKGRFTISRDNAKNTVYLQMNSLKPEDTAVYYCAARRYSYYRVHGTRHDYWGQGTQVTVSS”, the “polyreactivity (PSR sort gate)” value is “high polyreactivity”.
On to “QVQLVESWGGLVQAGGSLRLSCAASGFTFAYNTMGWYRQAPGTEREWVAAISSSGGSTYYADSVKGRFTISRDNAKNTVYLQMNSLKPEDTAVYDCAAPFWRSFWASDYCGQGTQVTVSS”, for which the “polyreactivity (PSR sort gate)” value is “high polyreactivity”.
The entry for “QVQLVESWGGLVQAGGSLRLSCAASGFTFDNYPMGWYRQAPGKERELVAAIINSGGSTYYADSVKGRFTISRDNAKNTVYLQMNSLKPEDTAVYYCAARILPFRQWYRTYEYWGQGTQVTVSS” is “high polyreactivity”; for “QVQLVESWGGLVQAGGSLRLSCAASGFTFNANAMGWYRQAPGKERELVAAISLSGGRTYYADSVKGRFTISRDNEKNTVYLQMNSLKPVDTAVYYCAASPDGSFRRFSRVVSGDYWGQGTQVTVSS” it is “high polyreactivity”.
In the case of “QVQLVESWGGLVQAGGSLRLSCAASGITFSNYAMGWYRQAPGKERELVAAISKRGGSTYYADSVKGRFTISRDTAKYTVYLQMNSLKPEDTAVYYCAAAGVRVYVRSVLDYWGQGTQVTVSS” it was “high polyreactivity”; in that of “QVQLVESWGGLVQAGGSLRLSCAASGLIFKVYAMGWYRQAPGKERELVAAITYSGGSTDYADSVKGRFTISRDNAKNTVYLQMNSLKPEDTAVYYCNVEKVGHVNSYGYDYWGQGTQVTVSS”, “low polyreactivity”.
In the case of “QVQLVESWGGLVQAGGSLRLSCAASGLPSKLMLMVWYRQAPGKERELVAAISSSGGRTYYADSVKGRFTISRDNAKITVYLQMNSLKPEDTAVYYCAAYFPRTLFEFGYWGQGNQVTVSS” it was “high polyreactivity”.
Turning to “QVQLVESWGGLVQAGGSLRLSCAASGLTFNYYDMGWYRQAPGKERELVAAISRSGTNTSYADSVKGRFTISRDNAKNTVYLQMNSLKPEDTAVYYCNAAGVYLAAGPYTANFNYNYWGQGTQVTVSS”, the “polyreactivity (PSR sort gate)” value is on record as “low polyreactivity”.
The entry for “QVQLVESWGGLVQAGGSLRLSCAASGRIFDPYAMGWYRQAPGKERELVATITLRGGITYYADSVKGRFTISRDNAKNTVYLEMNSLKPEDTAVYYCAKKVRYYVRWEYDYWGQGTQVTVSS” is “low polyreactivity”.
In the case of “QVQLVESWGGLVQAGGSLRLSCAASGRIFGRYAMGWYRQAPGKERELVAAIRSTGSTNYADSVKGRFTISRDNAKNTVYLQMNSLKPEDTAVYYCAAYRRRTYAVNKEGGYWGQGTQVTVSS” it was “high polyreactivity”; in that of “QVQLVESWGGLVQAGGSLRLSCAASGSIFSVYAMGWYRQAPGKERELVAAITSGGGTKYADSLKGRFTISRDNAKNTVYLQMNSLKPEDTAVYYCAAESFSDGSPYNYWGQGTQVTVSS”, “low polyreactivity”; in that of “QVQLVESWGGLVQAGGSLRLSCAASGSTFAGYAMGWYRQAPGKERELVAAIDWGGDSTYYADSVKGRFTISRDNAKNTVYLQMNSLKPEDTAVYYCAAYWYSRYDYDYWGQGTQVTVSS”, “low polyreactivity”.
Take “QVQLVESWGGLVQAGGSLRLSCAASGSTFGYYAMGWYRRAPGNEMELVAALSSSSSTNYADSVKGRFTISRDNAMNTVYLQMNRLIPEETAVYYCASDPYWLHWTFDYWGQGSQVTVSS”: the “polyreactivity (PSR sort gate)” value is on record as “low polyreactivity”.
For the sequence “QVQLVESWGGLVQAGGSLRLSCAASGSTFRPYAMGWYRQAPGKERELVAAFRSGRTSYADSVKGRFTISRDNAKNTVYLQMNSLKPEDTAVYYCAKASRGGYYWGQGTQVTVSS”, the “polyreactivity (PSR sort gate)” value is on record as “high polyreactivity”.
As to “QVQLVESWGGLVQAGGSLRLSCAASGSTFRSNAMGWYRQAPGKERELVAAITGSGGSTYYADSVKGRYTISRDNAKNTVYLQMNSLKPEDTAVYYCWGLGTQVTVSS”, the “polyreactivity (PSR sort gate)” value is “low polyreactivity”.
The entry for “QVQLVESWGGLVQAGGSLRLSCAASGSTFYRYAMGWSRQAPGKERELVAAINTGGSTNYADSVKGRFTISRDNAKNTVYLQMNSLKPEDTAVYYCAARFQYYRKYDYWGQGTQVTVSS” is “low polyreactivity”.
As to “QVQLVESWGGLVQAGGSLRLSCAASGSTSVYYAMGWYRQTPGKERELVDAITWDDGSTSYADSVKGRFTISRDNAKNTVYLQMNSLKPEDTEVYYCAKDYEYLGAFNYWGQGTQVTGSS”, the “polyreactivity (PSR sort gate)” value is on record as “low polyreactivity”.
With “QVQLVESWGGLVQAGGSLRLSCADSGYIYDHYDMGWYRQAPGKDRELVAAISRSAGSTYYADSVKGRFTITRDNAKNTVYLQMNSLKPEDSAVYYCAADGKYYHRRPGWPIYDYWGQGTQVTVSS”, the “polyreactivity (PSR sort gate)” value is given as “high polyreactivity”.
Take “QVQLVESWGGLVQAGGSLRLSCADSGYTFYTNAMGWYREAPGKERELVAAISIGGNTNYADSVKGRFTISRDNAKNTVYLQMNSLKPEDTAVYYCAKAWSGISSRDYDLDYWGQGTQVTVSS”: the “polyreactivity (PSR sort gate)” value is “low polyreactivity”.
The entry for “QVQLVESWGGLVQAGGSLRLSCGASGYSFQPYTMGWYRQAPGKERELVAAISKSGTRTYYADSVKGRFTISRDNAKNTVYLQMNSLKPEDTAVYYCAARYTGNLFDYWGQGTQVTVSS” is “high polyreactivity”; for “QVQLVESWGGLVQAVGSLRLTCAASGVIFAIYAIGLYRQAAGKEREMVSSIRWSSGRTYYPDSVKGRFTISRDNAKNTVYLQMNSLKPEDTAVYNCAATPSIFTIHRQDYDYWGQGTQVTVSS” it is “high polyreactivity”; for “QVQLVESWGGLVQPGGSLRLRCAASGLIFGRNAMGWYRQAPGKERELVAAISWSGGSTYYADSVKGRFTISRDNAKNTVYLQMNSLKPEDTAVYYCYRYRYYGSEDDYWGQGTQVTVSS” it is “high polyreactivity”.
As for “QVQLVESWVGLVQAGGSLRLSCAASGNTFKYYDMGWYRQAPGKERELVATISRTAGSTYYADSVKGRFSISRDYAKNTVYLQMNSLKPEDTAVYYCNKDRGHPFKYDYWGQGTQVTVSS”, the “polyreactivity (PSR sort gate)” value is listed as “low polyreactivity”.
The entry for “QVQLVETGAGLVQAGGSLRLSCAASGRTYVYNAMGWYRQAPGKERELVAAIDGGGDRTYYADSVKGRFTISRDNAKNTVYLQMNSRKPEDTAVYYCARDQGDTYYYSYPEGDYWGQGTQVTVSS” is “low polyreactivity”; for “QVQLVETGAGLVQAGGSLRLSSAASGFIFYPYAMGWYRQAPGKERELVAVINKSSDNTYYADSVKGRFTISRDNAKNTVYLQMNSLKPEDTAVYYCAAEYVFYSRFFTEEYWGQGTQVTVSS” it is “low polyreactivity”.
Regarding “QVQLVETGGGIVQAGASLRLSCAASGRIFPPYAMGWYRQAPGKERELVAAISSSGGSTYYADSVKGRFTISRDNGKNTVYLQMNSLKPEDTAVYYCATFFARGYNSWGQGTQVTVSS”, the “polyreactivity (PSR sort gate)” value is given as “high polyreactivity”.
In the case of “QVQLVETGGGIVQAVGSLRLSCAASGSTFGWNAMGWNRQAPGKERELVAVISSDGRTYYADSVKGRFTISRDNAKNTVYLQMISLKPEDTAVYYCAKRAWGFGGYDYWGQGTQVTVSS” it was “low polyreactivity”; in that of “QVQLVETGGGLFQAGGSLRISCAASGFIFTLYAMGWYRQAPGKERELVAAINSGGSTDYADSVKGRFTISRDNAKNTVYLQMNSLKPEDTAVYYCAAGNTYAGSDYWGQGTQVTVSS”, “low polyreactivity”.
Take “QVQLVETGGGLVQAGGRLRLSCAASGRILPGNAMGWSRQAPGKERELVAAISSGGRTNYADSVKGRFTISRDNAKNTVYLQMNSLKPEESAVYYCAKRTVWWSNWHYYPPTYNYWGQGTQVTVSS”: the “polyreactivity (PSR sort gate)” value is given as “high polyreactivity”.
In the case of “QVQLVETGGGLVQAGGRLRLSCAASGSIFPDYDMGWYRQAPGKQRELVAAISSSGDSTYYADSVKGRFTISRDNAKNTVYLLMNSLKPEDTAVYYCAVDGTRSTSNGSEFTGYNYWGQGTQVTVSS” it was “low polyreactivity”.
The entry for “QVQLVETGGGLVQAGGSLRISCAASGRIFGWYAMGWYRQAPGKERELVAGINYGGGRTYYADSVKGRFTISRDNAKNTVYLQMNSLKPEDTAVYYCAAGISGHYYWGQGTQVTVSS” is “high polyreactivity”.
The entry for “QVQLVETGGGLVQAGGSLRISCAPSGRTFRNNDMAWYRQAPGTEREFVAVISNTGGSTYYADSVKGRFTNSRDNAKNTVYLQMNSLKPEDTAVYYCAVRPRYSQYYYWGQGTQVTVSS” is “high polyreactivity”; for “QVQLVETGGGLVQAGGSLRISCAPSGSTFAGYAMGWYRQAPGKERELVAAISYSGGTTYYADSVKGRFTISRDNAKNTVYLQMNSLKPEDTAVYYCAARKKYKTPSNDMYYWGQGTQVTVSS” it is “high polyreactivity”; for “QVQLVETGGGLVQAGGSLRLICAASGRIFTWYAMGWYRQGPGKERELVATNSYNGGRTYYADSVKGRFTISRDNAKNTVYLQMNSLKPEDNAVYYCNTVPVGSVSHGLDSRFGYWGQGTQVTVSS” it is “high polyreactivity”.
For “QVQLVETGGGLVQAGGSLRLICAASGSTFQNNAMGCYIQAPGKERELVAAIRFSGGSTYYADSVKGRFTISRDNAKNTVYLQMNSLKPEDTAVYYCNAVVKRWSDYSYPVRYDYWGQGTQVTVSS”, the “polyreactivity (PSR sort gate)” value was “high polyreactivity”.
In the case of “QVQLVETGGGLVQAGGSLRLRGAASGSTNYNYAMGWYRQAPGKERELVAAISISGGSPYYADSVKGRFTISRDNANNTVYLQMYSLKAEDTAVYYCAAVRLGSRGGYCGQGTQVTVSS” it was “high polyreactivity”.
The entry for “QVQLVETGGGLVQAGGSLRLSCAASGCTFKYNTMGWYRQAPGKERELVAAITSGGGSTNYADSVKGRFTISRDNAKNTVYLQMNSLKPEDTAVYYCAAYRRNTYWGQVTQVTVSS” is “high polyreactivity”.
The entry for “QVQLVETGGGLVQAGGSLRLSCAASGFIFRKYAMGWYRQAPGKERELVAAITASGGSTYYADSVKGRFTISRDNAKNTVYLQMNSLKPEDTAVYYCATDYHGAERWLKYVYWGQGTQVTVSS” is “high polyreactivity”.
Take “QVQLVETGGGLVQAGGSLRLSCAASGFIFVKYAMGWYRQAPGKERELVAAITTSGTGTFYADSVKGRFTISRDNAKNTVYLQMNSLKPVDTAVYYCNALGHPGDDWGQVTQVTVSS”: the “polyreactivity (PSR sort gate)” value is on record as “low polyreactivity”.
As to “QVQLVETGGGLVQAGGSLRLSCAASGFTFASYAMGWYRQAPGKERELVAAITWGTGTTSYADSVKGRFTISRDNAKNTVYLQMNSLKPEDTAVYYCATRYRQITYRRRYDYWGQGTQVTVSS”, the “polyreactivity (PSR sort gate)” value was “low polyreactivity”.
